Laboratory results: publication PMC10495429, “Discovery of L-threonine transaldolases for enhanced biosynthesis of beta-hydroxylated amino acids” (Communications Biology, 2023)

How the values were obtained:
[1] = system: T1, PbTTA; assay: TTA-ADH coupled assay (NADH depletion at […] nm), non-linear regression; assay type: biochemical; conditions: 1 mM phenylacetaldehyde (non-saturating), PLP, MgCl2, phosphate pH 7.5, 30 °C; read-out: apparent KM
T1 construct: N-terminal hexahistidine-SUMO tag with TEV site kept (screen done with SUMO fusion intact), E. coli BL21

[2] = system: C[C@@H](O)[C@H](N)C(=O)O; assay: purified protein; conditions: 1 mM phenylacetaldehyde (non-saturating), PLP, MgCl2, phosphate pH 7.5, 30 °C
[3] = substrate: C[C@@H](O)[C@H](N)C(=O)O; assay: purified protein; assay type: biochemical, Pseudomonas fluorescens; conditions: 1 mM phenylacetaldehyde (non-saturating), PLP, MgCl2, phosphate pH 7.5, 30 °C

C[C@@H](O)[C@H](N)C(=O)O [L-Thr]
Km [1]: 10.9 mM

PiTTA (Pseudomonas sp. Irchel s3a18)
Km [2]: 35.8 (21.0, 41.5) mM | kcat [2]: 276.4 (260, 294.7) min-1

s-KaTTA (Kitasatospora aureofaciens)
Km [2]: 19.1 mM

B1: ObiH (Pseudomonas fluorescens) (protein)
chain: MSNVKQQTAQIVDWLSSTLGKDHQYREDSLSLTANENYPSALVRLTSGSTAGAFYHCSFPFEVPAGEWHFPEPGHMNAIADQVRDLGKTLIGAQAFDWRPNGGSTAEQALMLAACKPGEGFVHFAHRDGGHFALESLAQKMGIEIFHLPVNPTSLLIDVAKLDEMVRRNPHIRIVILDQSFKLRWQPLAEIRSVLPDSCTLTYDMSHDGGLIMGGVFDSPLSCGADIVHGNTHKTIPGPQKGYIGFKSAQHPLLVDTSLWVCPHLQSNCHAEQLPPMWVAFKEMELFGRDYAAQIVSNAKTLARHLHELGLDVTGESFGFTQTHQVHFAVGDLQKALDLCVNSLHAGGIRSTNIEIPGKPGVHGIRLGVQAMTRRGMKEKDFEVVARFIADLYFKKTEPAKVAQQIKEFLQAFPLAPLAYSFDNYLDEELLAAVYQGAQR
notes: N-terminal hexahistidine tag, expressed in E. coli BL21, codon-optimised gene; tag kept
Km [3]: 29.5 mM
